Conditions in all cases: both partners purified
For experiment [1], the target named is T1, hemagglutinin (HA) of influenza A virus A/Sydney/05/1997 (H3N2, group 2) (Influenza A virus A/Sydney/5/1997 (H3N2), UniProt C3PR59, strain).
T1 construct: also called A/Sydney/05/1997 HA
In words: ELISA. For orientation: ELISA stands for enzyme-linked immunosorbent assay.

The target in experiment [2] is T2, hemagglutinin (HA) of influenza A virus A/California/07/2009 (H1N1, group 1) (Influenza A virus A/California/07/2009 …, UniProt C3W5X2, strain).
T2 construct: also called A/California/07/2009 HA
In words: ELISA.

The target of experiment [3] is T3, biotinylated HA antigen of B/Florida/04/2006 (Influenza B virus B/Florida/4/2006, UniProt E1TVD5, strain).
T3 construct: also called HA of B/Florida/04/2006
In words: BLI.

Some results are limits rather than exact numbers.

B1: TRL854 (antibody, V domains shown)
VH: QVQLVESGAEVKKPGASVRVSCKGSGYTFTAYHMHWVRQAPGQGFEWVGWINPNSGATYYTSTFEGRVTMTRDTSITTAYMELSSLRSDDTAVYYCATDIVVERDASLGGFNSYGMDVWGQGTTVTVSS
VL: DIEMTQSPLSLPVTPGEPASISCRSSQSLLHSNGYNHLAWYLQKPGRSPHLLIYLASTRASGVPDRFSGSGSGTDFTLKISRVEAEDVGIYYCMQSLQTSITFGQGTRLEIK
notes: also called MAb TRL854
As to B1, the figures for the binding result in experiment [1], in experiment [2] and in experiment [3] were “no binding (tested: 5 μg/ml (30 nM))”, “no binding (tested: 5 μg/ml (30 nM))” and “binds”, respectively.

B2: TRL849 (antibody, V domains shown)
VH: QVQLVESGPGLVKPSQTLSLTCTVSGGSISNGGYHWSWIRQHPGKGLEWIGNIYYRGSTFYDPSLKSRVTISVDTSKSQFSLKLTSVTAADTAVYYCARMPLANYDLLTGLYIGAFDLWGQGTMVTVSS
VL: DIVLTQSPATLSVSPGERATLSCRASQSVNRNLAWFQQIPGQAPRLLIFDASTRAADIPARFSGGGSGAEFTLTVSSLQPEDFAVYYCQQYDKWPPGFGQGTKVEIK
notes: also called MAb TRL849
B2: the binding result in experiment [1] and in experiment [2] was “no binding (tested: 5 μg/ml (30 nM))” in each case. The molecule also displayed a Kd in experiment [3] not above 0.2 nM.

B3: TRL845 (antibody, V domains shown)
VH: QVQLVQSGGDLVQPGGSLRLSCAASGFTFSRYSMNWVRQAPGMGLEWVAYISDTSRTIYYADSVKGRFTISRDNAKNSLYLQMKSLRDEDTAVYYCARDPDTPFVRAFDSWGQGTLVTVSS
VL: DIVLTQSPSFLSASVGDRVTITCRASQLISSYFAWYQQKPGKPPKLLIYAASTLQSGVPSRFSGSGSGTQFSLTISSLQPEDFATYYCQQLNSYPPITFGQGTRLEIK
notes: also called MAb TRL845
Turning to B3, the binding result in experiment [1] and in experiment [2] was “no binding (tested: 5 μg/ml (30 nM))” each time. In addition, the equilibrium dissociation constant (Kd) in experiment [3] is not above 0.2 nM.

B4: TRL847 (antibody, V domains shown)
VH: QVQLVESGGGLVQPGGSLRLSCVASGFTFSRFSMNWVRQAPGMGLEWVSYISDTGRTIYYADSVKGRFTISRDNDKNTLYLQMKSLRDEDSAFYYCARDPDTPFVRAFDSWGQGVLVTVSS
VL: DIVMTQSPSFLSASVGDRVTITCRTSQVISSYLAWYQQRPGKAPKLLIYAASTLQSGVPSRFSGSGSGTRFSLTISNLQPEDFATYFCQQLTTYPPITFGQGTRLEIK
notes: also called MAb TRL847
For B4, the values for the binding result in experiment [1], in experiment [2] and in experiment [3] were “no binding (tested: 5 μg/ml (30 nM))”, “no binding (tested: 5 μg/ml (30 nM))” and “binds”, respectively.

B5: TRL848 (antibody, V domains shown)
VH: QVQLLESGGDVVQPGTSLRLSCAASGFSLWTSGMHWVRQAPGKGLEWVAVMSYDETKKYYADSVRGRFSISRDNSRNTLYLQMNSLRVEDTAVYFCAKPRLDYLDYFHAADSWGQGTLVSVSS
VL: DIVLTQPPSVSVAPGQTATITCGGNYIGSKSVNWYQQRPGHAPVLVVYDDSDRPSGIPDRFSGSNSRSTATTATLTISRVEAGDEADYYCQVWETSEDLWVFGGGTKLTVL
notes: also called MAb TRL848
In the case of B5, the binding result in experiment [1] was “no binding (tested: 5 μg/ml (30 nM))”; in experiment [2] it was “no binding (tested: 5 μg/ml (30 nM))”; in experiment [3] it was “binds”.

One may read the Kd as the constant that tells how readily two partners part at equilibrium.

The values are drawn from PMC5923107 (Antimicrobial Agents and Chemotherapy, 2018).
